Measured values: article PMC7023257

Target: SecY(S329C)EG (E. coli) (UniProt P0AGA2)

MKKTAIAIAVALAGFATVAQC
characteristic lifetime of the open channels at φ = −140 mV after cross-linking by KTT: 14 s
